In the nanobody polyreactivity screen of Harvey et al. (2022):

Assay: yeast display, Sf9 membrane polyspecificity reagent, FACS + sequencing; frameworks hold sequencing errors
In short: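 Synthetic nanobody libraries on Saccharomyces cerevisiae BJ5465 were galactose-induced for 36–48 hours, stained 1 hour at 4 °C with 10% biotinylated, detergent-solubilized Sf9 membrane reagent and enriched on streptavidin microbeads. FACS then separated cells into low and high (top ~1%) gates by anti-HA (expression) and streptavidin (reagent binding) fluorescence. Genes were colony-PCR amplified, MiSeq 2 × 250 sequenced and CDR-length filtered. A clone's polyreactivity label is that of its gate of origin.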

QVKLVESGGGLVQAGGSLRLSCDASGSTFIANTMGWYRQAPGKERELVAAITDSGGSTYYADSVKGRFTISRDNAKNTVYLQMNSLKPEDTAVYYCNADYVYVFIRAWSYDYWGQGTQVTVSS
polyreactivity (PSR sort gate): low polyreactivity

QVQLVESGGGLVQGGGSLRLSCAASGSTFGRYAMGWYRQAPGKEREFVAGITGRGGSTYYADSVKGRFTISRDNAKNTVYLQMNSLKPQDTAVYYCAAGYRVGYLRAGDYWGQGTQVTVSS
polyreactivity (PSR sort gate): high polyreactivity

QVQLLESGGGLVQAGGSLRLSCAASGSIYVYNAMAWYRQAPGKERELVAAISRGGRTYADSVKGRFTISRDNAKNTVYLQMNSLKPEDTAVYYCAAQGYYRSWYSRQGHYDFWGQGTQVTVSS
polyreactivity (PSR sort gate): high polyreactivity

QVQLVESGGSLVQAGGSLRLSCAASGSTFTKYVMGWYRQAPGKERELVAAISQSGTRTYYADSVKGRFTISRDNAKNTVYLQMNSLKPEDTAVYYCNKPVRNGSYHNRYNYWGQGTQVTVSS
polyreactivity (PSR sort gate): high polyreactivity

QVQLVESGGGLVQAGGSLRLSCAASGIFEWNAMGWYRQAPRTERELVAAISNSGGSTYYADSVKGRFTISRDNAKNTVYLQMNSLKPEDNAVYYCAARSKTPAWWYWNSYYIRDYWGQATQVTVSS
polyreactivity (PSR sort gate): high polyreactivity

QVQLVESGGGLVQAGGSLRLSCAASGSIFYYNPMGWYRQAPWKERELVAAITGSGGSTYYADSVKGRFTISRDNAKNTVYLQMNSLKPEDTAVYYCAADYSLYGWWFRNDYWGQGTQVTVSS
polyreactivity (PSR sort gate): low polyreactivity

QVQLVESGGGLVQAGGSLRLSCAASGSTFVVNDMGWYRQAPGKERELVAAIRSGTSTNYADSVKGRFTISRDNAKNTVYLQMNSLKPEDTAVYYCNAAITQFAWNRYTLIYDYWGQGTQVTVSS
polyreactivity (PSR sort gate): low polyreactivity

QVQLVESGGGLVQAGGSLRLSCAASGLISDRNAMGWYRQAPGKERELVASIRSGGSTYYADSVKGRFTISRDNAKNTVYLQMNSQKPEDTAVYYCAAGGGHTPVSYYLVPYMDYWGQGTQVTVSS
polyreactivity (PSR sort gate): low polyreactivity

QVQLVESGGGLVQAGGSLRLSCAASGSTFPYYAMGWYRQAPGKERELVAAISRRGGSTYYADSVKGRFTISRDNAKNTVYLQMNSLKPEDTAVYYCAAGYYPSSSGDDYWGQGTQVTVSS
polyreactivity (PSR sort gate): high polyreactivity

QVQLVESGGGLVQAGGSLRLSCAASGIIFRLNTMGWYRPAPGTERELVAAITSGGSTHYADSVKGRFTISRDNAKNTVYLQRISLNPEDTAVYYCAAGHRAKYWAWHFYYPGDYWGQGTQVTVSS
polyreactivity (PSR sort gate): low polyreactivity

QVHLVESGGGLVQAGGSLRLSCAASGSIFVPYAMGWYRQAPRKERELVAAINHGGGRTYADSVKGRFTISRDNAKNSVYLQMNSLKPDDTAVYYCAADGADKIGYYSYYYWGQGTQVTVSS
polyreactivity (PSR sort gate): low polyreactivity

QVQLVESGGGVVQAGGSLRLSCAASGITLAWYAMGWSRQAPGKERELVAAINSGGSTYYADSVKGRFTISRDTAKNTVYLQMNSLKPEDTAVYYCNTDDDSSSTGYYSWGQGTQVTVSS
polyreactivity (PSR sort gate): low polyreactivity

QVQLVESGGGLVQAGGSLRLSCAASGFTFWSYAMGWYRQAPGKERELVAAISSSGDSTYYADSVKGRFTISRDNAKNTVYLQMNSLKPEDTAVYYCAAEYQYLSVEVTDIWYLTKYDYWGQGTQVTVSS
polyreactivity (PSR sort gate): low polyreactivity

QVQLVESGRGLVQAGGSLRLSCAASGRIFYYYAMGWYRKAPRKERELVAANTETGGNTYYADSVKGRFTISRDNAKNTVYLQMNSLKPEDTAVYYCARKGRRTHHYGLYSSSVYYWGQGTQVTVSS
polyreactivity (PSR sort gate): low polyreactivity

QVQLVESGGGLVQAGGSLRLSCAASGFTFTRNAMGWYRQAPGKERELVAAISKRGGTTYYADSVKGRFTISRDNAKNTVYLQMNSLKPEDTAVYYCAKDGGITGGYWGQGTQVTVSS
polyreactivity (PSR sort gate): high polyreactivity

QVQLVESGGGLVQAGGSLRLSCAASGRTFVTNAMGWYRQAPGKERELVAAISSNGGSTYYADSVKGRFTISRDNAKNTVFLQMNSLKPEDTAVYYCNAEGQPLYVSWHDHRYIYGFDYWGQGTQVSVSS
polyreactivity (PSR sort gate): low polyreactivity

QVQLVESGGGLVQAGGRLRLSCAASGRTILSYAMGWYRQAPAKERELVAAITGSGGRKYYADSVKGRFTISRENAKNTVYLQMNSLKPEDTAVYYCATRWIKGRKMDYWGQGTQVTVSS
polyreactivity (PSR sort gate): high polyreactivity

QVKLVESGGGLVQAGGSLRLSCAASGRTVTRNTMGWYRQAPGKERELVAAISRSGGGTYYADSVKGRFTISRDNAKNTVYLQMNSLKPEDTAVYYCAAVPQNYRNFDGYNYWGQGTQVTVSS
polyreactivity (PSR sort gate): high polyreactivity

QVQLEESGGGFVQAGGSLRLSCAASGFIFSSNAMGWYRQAPGKERELVASISSGGSTNYADSVKGRFTISRDNAKNTVYLQMNSLKPEDTAVYYCAADGISLYATAYDYWGQGTQVTVSS
polyreactivity (PSR sort gate): low polyreactivity

QVHLVQSGGGIVQAGGSLRLSCPASGSIFGYYAMGWYRQPRGKERELVAAITGGGRTYYADSVKGRFTISRDNAKNTVYLQMNSLKPEDTGVYYCTARSTSYRSYWRDYWGQGTHVTVSS
polyreactivity (PSR sort gate): high polyreactivity

QVQLVESGGGLVQAGGSLRLSCAASGRIFGDYAMGWYRQAPGKERELVAAINSSGTSTNYADSVKGRFTISRDNAKNTVYLQMNSLKPEDTAVYYCNAEGTYRPDYDSWGQGTQVTVSS
polyreactivity (PSR sort gate): low polyreactivity

QVQLVESGGGLVQAGGSLSLSCAASGFIFGGNAMGWYRQAPGKERELVAAISSGGRTYYADSVKGRFTISRDNAKNTVYLQMNSLKPEDTAVYYLNDYSYHRGRDYWGQGTQVTVSS
polyreactivity (PSR sort gate): low polyreactivity

QVQIVESGGGLVQAGRSLRLSCAASGIIFDHYAMGWYRQAPGKERELVAAITTGGGNTYYADSVKGRFTISRDNAKNTVYLQMNCLKPEDTAVYYCNDDGLWGRRWGDYYGYDYWGQGTQVTVSS
polyreactivity (PSR sort gate): low polyreactivity

QVQLVESGGGLVQAGGSLRLSCAASGIFTYNAMGWYRQAPGKERELVASITRGGSTNYADSVKGRFTISRDNAKNTVYLQMNSLKPEDTAVYYCAARVRVYSGWLYNYWGQGTQVTVSS
polyreactivity (PSR sort gate): high polyreactivity

QVQLVESGGGLVQAGGSLRLSSAASGRIFLLNAMGWYRQAPGKERELVADISFNGGSTYYADSVKGRFTISRDNAKNSVYLQMNSLKPEDTAVYYCAVGSFGVSAYSYYYWGQGTQVTVSS
polyreactivity (PSR sort gate): low polyreactivity

QVQLVESGGGLVQAGGSLRLSCAASGGTFRNYAMGWYRQAPGKERELVAAITTGTITNYADSVKGRFTISRDNAKNTVYLQMNSLKPEDTAVYYCNAGAFYSDPYDYWGQGTQLTVSS
polyreactivity (PSR sort gate): low polyreactivity

QVQLVESGGGLVQAGGSLRLSCAASGLTFSQNAMGWYRQAPGKERELVAAITRSGSTTHYADSVKGRFTISRDNAKNTVYLQMNSLKPEDTAVYYCAAVAFQTRYYYWGQGTQVTVSS
polyreactivity (PSR sort gate): high polyreactivity

QVQLVESGGGLVQPEGSLRLSSAASGRTFDYYALGWYRQAPGKERELVAAITWRGVSTYYADSVKGRFTISRDNAKNTVYLQMNSLKPEDTAVYYCAAYSYPYWQKRPYDYWGQGTQVTVSS
polyreactivity (PSR sort gate): low polyreactivity

QVQLGESGGGLVQAGGSLRLSCAASGGIFIGNAMGWYRQAPGKERELVAAISFSGGSTYYADSVKGRFTISRDNAKNTVYLQMNSLKPEDTAVYYCARRIGHGSRPYWLETWRYPYDYWGQGTQVTVSS
polyreactivity (PSR sort gate): low polyreactivity

QVQLVESGGGLVQAGGSLRLSCAASGRTFRLYALGWYRQAPGKERELVAAITRGGRTNYADSVTGRFTISRDNAKNTVYLQMNSLKPEDTAVYYCAARYVERHTDYYYWGQGTQVTVSS
polyreactivity (PSR sort gate): low polyreactivity

QVQLVESGGGLVQAGGSLRLSCAASGSIFGKYAMGWYRQAPGKERELVAAISERTGRTYYADSVKGRFTISRDNAKNTVYLQMNSLKPEDTAVYYCNVVPLDSGWSTYGYDYWGQGTQVTVSS
polyreactivity (PSR sort gate): high polyreactivity
